The source of these data is US20230272446A1 (University of Washington, published 2023).

This data set concerns the molecule itself. Briefly: analytical size exclusion chromatography with multi-angle light scattering (SEC-MALS); self-association (homodimer). In general terms: SEC sorts molecules by how far they enter the pores of the column.

B1: DHR76 (designed helical repeat protein 76) (other)
chain: MNPELEEWIRRAKEVAKEVEKVAQRAEEEGNPDLRDSAKELRRAVEEAIEEAKKQGNPELVEWVARAAKVAAEVIKVAIQAEKEGNRDLFRAALELVRAVIEAIEEAVKQGNPELVEWVARAAKVAAEVIKVAIQAEKEGNRDLFRAALELVRAVIEAIEEAVKQGNPELVERVARLAKKAAELIKRAIRAEKEGNRDERREALERVREVIERIEELVRQGGWLEHHHHHH
B1: the binding result was “binds”.

B2: DHR49 (designed helical repeat protein 49) (other)
chain: MDSEEEQERIRRILKEARKSGTEESLRQAIEDVAQLAKKSQDSEVLEEAIRVILRIAKESGSEEALRQAIRAVAEIAKEAQDSEVLEEAIRVILRIAKESGSEEALRQAIRAVAEIAKEAQDPRVLEEAIRVIRQIAEESGSEEARRQAERAEEEIRRRAQGWLEHHHHHH
As to B2, the binding result is “binds”.
